B1: Hairpin Ribozyme (parent)
chain: GUCCUCUUUCACGUGCGCGUGAAAGAGAGAAGUGAACCAGAGAAACACACGUUGUGGUAUAUUACCUGGUA

In the series the parent is B1. The series is described as follows: self-cleavage, relative activity (ratio to wild type); higher = more cleavage; co-transcriptional.
GUCCUCUUUCACGUGCGCGUGAAAGAGAGAAGUGAACAAGAGAAACACACGUUGUGGUAUAUUACCUGGUG: the self-cleavage was determined as 0.249.
In the case of GUCCUCUUUCACGUGCGCGUGAAAGAGAGAAGUGAAUCAGAGAAACACACGUCGUGGUAUAUUACCUGGUA, the self-cleavage was found to be 0.808.
GUCCUCUUUCACGUGCGCGUGAAAGAGAGAAGUGAACUAGAGAAACUCACGUUGUGGUAUAUUACCUGGUA: the self-cleavage was determined as 0.151.
Regarding GUCCUCUUUCACGUGCGCGUGAAAGAGAGAAGUGAACUUGAGAAACACACGUUGUGGUAUAUUACCUGGUA, the self-cleavage was 0.185.
GUCCUCUUUCACGUGCGCGUGAAAGAGAGAAGUGAACUGGAGAAACACACGUUGUGGUAUAUUACCUGGUA: the self-cleavage was determined as 0.3.
For the variant GUCCUCUUUCACGUGCGCGUGAAAGAGAGAAGUGAACGAGAGAAACACUCGUUGUGGUAUAUUACCUGGUA, the self-cleavage is 0.137.
Regarding GUCCUCUUUCACGUGCGCGUGAAAGAGAGAAGUGAACGAGAGAAACACACGUUGUGGUCUAUUACCUGGUA, the self-cleavage was found to be 0.12.
Take GUCCUCUUUCACGUGCGCGUGAAAGAGAGAAGUGAACGAGAUAAACACACGUUGUGGUAUAUUACCUGGUA: the self-cleavage was 0.172.
For GUCCUCUUUCACGUGCGCGUGAAAGAGAGAAGUGAACAGGAGAAACACACGUUGUGGUAUAUUACCUGGUA the value was 0.136; for GUCCUCUUUCACGUGCGCGUGAAAGAGAGAAGUGAACACGAGAAACACACGUUGUGGUAUAUUACCUGGUA, 0.0755; for GUCCUCUUUCACGUGCGCGUGAAAGAGAGAAGUGAACGAGAGGAACACACGUUGUGGUAUAUUACCUGGUA, 0.171.
On to GUCCUCUUUCACGUGCGCGUGAAAGAGAGAAGUGAACGAGAGAAACACACGUUGUGGUACAUUACCUGGUA, for which the self-cleavage came to 0.233.
For GUCCUCUUUCACGUGCGCGUGAAAGAGAGAAGUGAACGAGAGAAACACACGUUGUGGUAUAUUACCAGGUA the value was 0.224; for GUCCUCUUUCACGUGCGCGUGAAAGAGAGAAGUGAACUAGAGAAACACGCGUUGUGGUAUAUUACCUGGUA, 0.343; for GUCCUCUUUCACGUGCGCGUGAAAGAGAGAAGUGAACUAGAGAAACACUCGUUGUGGUAUAUUACCUGGUA, 0.137.
Take GUCCUCUUUCACGUGCGCGUGAAAGAGAGAAGUGAACAAGAGAACCACACGUUGUGGUAUAUUACCUGGUA: the self-cleavage came to 0.234.
For GUCCUCUUUCACGUGCGCGUGAAAGAGAGAAGUGAACAAGAGAAACACACGUUGUGGUAUAUUUCCUGGUA the value was 0.179.
For GUCCUCUUUCACGUGCGCGUGAAAGAGAGAAGUGAACAAGAGAAACACACGUUGUGGUAUAUUGCCUGGUA the value was 0.108; for GUCCUCUUUCACGUGCGCGUGAAAGAGAGAAGUGAACAAGAGAAACACACGUUGUGGUAUAUUCCCUGGUA, 0.103.
In the case of GUCCUCUUUCACGUGCGCGUGAAAGAGAGAAGUGAACAAGAGAAACACACGUUGUGGUAUAUUACCUGCUA, the self-cleavage turned out to be 0.168.
As for GUCCUCUUUCACGUGCGCGUGAAAGAGAGAAGUGAACGAGAGAAACACACGUUGUGGUAUAUCACCUGGUA, the figure is 0.178.
For the variant GUCCUCUUUCACGUGCGCGUGAAAGAGAGAAGUGAACGAGAGAAACACACGUUGUGGUAUAUUACCUGGUG, the self-cleavage amounted to 0.172.
As to GUCCUCUUUCACGUGCGCGUGAAAGAGAGAAGUGAACGAGAGAAACACACGUUGUGGUAUAUUACCUGGUU, the self-cleavage was determined as 0.138.
For GUCCUCUUUCACGUGCGCGUGAAAGAGAGAAGUGAACGAGAGAAACACACGUUGUGGUAUUUUACCUGGUA the value was 0.227.
For GUCCUCUUUCACGUGCGCGUGAAAGAGAGAAGUGAACGAGAGAAACACACGUUGUGGUAUGUUACCUGGUA the value was 0.166.
As to GUCCUCUUUCACGUGCGCGUGAAAGAGAGAAGUGAACAAGAGAAACACACGUUGUGGUAUAUUACCGGGUA, the self-cleavage turned out to be 0.137.
GUCCUCUUUCACGUGCGCGUGAAAGAGAGAAGUGAACAAGAGAAACACACGUUGUGGUAUAUUACCAGGUA: the self-cleavage stood at 0.124.
Consider GUCCUCUUUCACGUGCGCGUGAAAGAGAGAAGUGAACAACAGAAACACACGUUGUGGUAUAUUACCUGGUA, for which the self-cleavage worked out at 0.103.
Consider GUCCUCUUUCACGUGCGCGUGAAAGAGAGAAGUGAACAAUAGAAACACACGUUGUGGUAUAUUACCUGGUA, for which the self-cleavage was found to be 0.23.
Regarding GUCCUCUUUCACGUGCGCGUGAAAGAGAGAAGUGAACGAGAGAAACACACCUUGUGGUAUAUUACCUGGUA, the self-cleavage was found to be 0.147.
Regarding GUCCUCUUUCACGUGCGCGUGAAAGAGAGAAGUGAACAAGAGAAACCCACGUUGUGGUAUAUUACCUGGUA, the self-cleavage turned out to be 0.146.
For GUCCUCUUUCACGUGCGCGUGAAAGAGAGAAGUGAACAAGAGAAACUCACGUUGUGGUAUAUUACCUGGUA the value was 0.0951; for GUCCUCUUUCACGUGCGCGUGAAAGAGAGAAGUGAACGAGAGAAACACACGUUGUGGUAUAUUAUCUGGUA, 0.0351.
Consider GUCCUCUUUCACGUGCGCGUGAAAGAGAGAAGUGAACUAGAGAAUCACACGUUGUGGUAUAUUACCUGGUA, for which the self-cleavage was found to be 0.113.
Take GUCCUCUUUCACGUGCGCGUGAAAGAGAGAAGUGAAUCAGAGAAACACACGUUGUGGUAUAUUACCCGGUA: the self-cleavage stood at 0.142.
For GUCCUCUUUCACGUGCGCGUGAAAGAGAGAAGUGAAUCAGAGAAACACACGUUGUGGUAUAUUACCGGGUA, the self-cleavage was determined as 0.234.
Regarding GUCCUCUUUCACGUGCGCGUGAAAGAGAGAAGUGAACAAGAGAAACACACCUUGUGGUAUAUUACCUGGUA, the self-cleavage is 0.223.
As for GUCCUCUUUCACGUGCGCGUGAAAGAGAGAAGUGAACAAGAGAAACACCCGUUGUGGUAUAUUACCUGGUA, the figure is 0.11.
